According to the supplement of paper PMC10567573:

B1: SPDEF (parent)
chain: FQELAGKELCAMSEEQFRQRSPLG

Variants of: B1
Experiment: protein stability index of a GFP-peptide fusion (GPS, HEK-293T) (PSI 1-6); higher = more stable
Conditions: c terminus: a fixed tail appended
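Further: lentivirally expressed fusions sorted by FACS into six bins by GFP to DsRed ratio, PSI derived from sequencing read proportions per bin multiplied by bin number.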

Protein stability index, by site and new letter:
E15: R 2.5; S 2.21; L 2.32; P 2.41; W 2.56; A 3.05; Y 2.04; G 2.3; I 2.04; M 2.19; K 2.24; F 1.98; T 2.38; C 2.19; N 2.13; Q 2.71; H 2.01; D 2.74; V 1.93
P22: A 2.64; D 2.62; E 3.15; C 2.62; G 2.61; F 2.43
S21: K 2.44; N 2.6; E 2.58; T 2.59; H 2.82; A 2.73; W 2.4; P 2.43; I 2.43; F 3.17; Q 2.98; M 2.74; L 2.6; C 2.51; V 2.99; D 3.26; R 2.95; Y 2.96; G 2.52
Q19: L 2.24; M 2.33; G 2.53; S 2.45; N 2.11; I 2.39; Y 2.3; V 2.42; C 2.67; F 2.23; P 2.74; R 2.4; E 4.17; W 1.59; D 2.87; T 3.11; K 2.74; H 2.93; A 2.67
Q16: D 3.23; Y 2.16; M 2.23; V 2.28; W 1.92; A 3.12; T 2.65; K 2.28; G 2.74; P 2.47; L 2.2; F 2.13; C 2.86; I 2.49; S 2.56; E 3.06; N 2.74; H 2.43; R 2.6
F17: V 3.1; G 3.58; W 2.67; Y 2.93; L 3.14; N 3.02; Q 3.34; S 3.14; A 3.37; P 3.28; D 3.85; I 3.22; H 3.14; T 3.63; E 3.85; C 3.14; R 2.97; M 2.66; K 3.25
R20: S 2.88; L 2.55; T 2.91; P 2.58; H 2.74; D 3.47; A 2.79; W 2.52; C 2.4; K 2.51; I 2.86; V 2.1; E 3.71; Q 2.72; N 3.04; Y 2.43; M 2.1; F 2.2; G 2.49
S13: P 3.18; W 2.08; T 2.69; V 3.05; N 2.48; Y 2.4; Q 2.62; M 2.45; R 2.73
E14: W 2.95; D 2.89; F 2.22; K 2.15; P 2.38; S 2.3; L 2.3; T 1.89; M 2.03; Y 2.49; H 2.47; A 2.28; N 2.81; G 2.21; C 2.46; R 2.52; Q 2.63; I 1.8; V 2.07
R18: S 2.82; W 2; V 2.8; N 2.96; Y 2.29; P 2.92; L 2.76; F 2.21; Q 2.81; D 3.37; I 2.73; M 2.51; K 2.46; E 3.31; H 2.64; G 2.9; T 2.83; A 2.93; C 2.51
